Results reported in the supplement of paper PMC5998384.

Key:
HeLa Kyoto [1] = assay: solubility in G1/S (NP-40 vs SDS abundance) (log2 ratio); higher = more soluble; conditions: cell cycle stage: G1/S
HeLa Kyoto [2] = assay: solubility change mitosis vs G1/S (difference of NP-40 vs SDS log2 ratios) (log2 ratio difference); higher = more soluble in mitosis
HeLa Kyoto [3] = assay: thermal stability score vs G1/S (z-score of summed log2 fold changes over temperatures); higher = more thermally stable than in G1/S
[4] = cell cycle stage: early G1 (4.5 h after nocodazole release)
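Throughout, for solubility change mitosis vs G1/S (difference of NP-40 vs SDS log2 ratios): synchronized HeLa Kyoto cells (double thymidine block for G1/S, nocodazole release for mitosis), protein amounts in NP-40 versus SDS lysates quantified by mass spectrometry, three biological replicates.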
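Throughout, for solubility in G1/S (NP-40 vs SDS abundance): HeLa Kyoto cells arrested at G1/S by double thymidine block, proteins quantified by TMT10plex mass spectrometry in mild NP-40 versus SDS extracts, three biological replicates.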
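Throughout, for thermal stability score vs G1/S (z-score of summed log2 fold changes over temperatures): synchronized HeLa Kyoto cells, proteins quantified by TMT10plex mass spectrometry, three biological replicates, mitosis taken 0.5 h after nocodazole release, G1/S directly after double thymidine block.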

BMS1, sequence (chain, as listed by the source): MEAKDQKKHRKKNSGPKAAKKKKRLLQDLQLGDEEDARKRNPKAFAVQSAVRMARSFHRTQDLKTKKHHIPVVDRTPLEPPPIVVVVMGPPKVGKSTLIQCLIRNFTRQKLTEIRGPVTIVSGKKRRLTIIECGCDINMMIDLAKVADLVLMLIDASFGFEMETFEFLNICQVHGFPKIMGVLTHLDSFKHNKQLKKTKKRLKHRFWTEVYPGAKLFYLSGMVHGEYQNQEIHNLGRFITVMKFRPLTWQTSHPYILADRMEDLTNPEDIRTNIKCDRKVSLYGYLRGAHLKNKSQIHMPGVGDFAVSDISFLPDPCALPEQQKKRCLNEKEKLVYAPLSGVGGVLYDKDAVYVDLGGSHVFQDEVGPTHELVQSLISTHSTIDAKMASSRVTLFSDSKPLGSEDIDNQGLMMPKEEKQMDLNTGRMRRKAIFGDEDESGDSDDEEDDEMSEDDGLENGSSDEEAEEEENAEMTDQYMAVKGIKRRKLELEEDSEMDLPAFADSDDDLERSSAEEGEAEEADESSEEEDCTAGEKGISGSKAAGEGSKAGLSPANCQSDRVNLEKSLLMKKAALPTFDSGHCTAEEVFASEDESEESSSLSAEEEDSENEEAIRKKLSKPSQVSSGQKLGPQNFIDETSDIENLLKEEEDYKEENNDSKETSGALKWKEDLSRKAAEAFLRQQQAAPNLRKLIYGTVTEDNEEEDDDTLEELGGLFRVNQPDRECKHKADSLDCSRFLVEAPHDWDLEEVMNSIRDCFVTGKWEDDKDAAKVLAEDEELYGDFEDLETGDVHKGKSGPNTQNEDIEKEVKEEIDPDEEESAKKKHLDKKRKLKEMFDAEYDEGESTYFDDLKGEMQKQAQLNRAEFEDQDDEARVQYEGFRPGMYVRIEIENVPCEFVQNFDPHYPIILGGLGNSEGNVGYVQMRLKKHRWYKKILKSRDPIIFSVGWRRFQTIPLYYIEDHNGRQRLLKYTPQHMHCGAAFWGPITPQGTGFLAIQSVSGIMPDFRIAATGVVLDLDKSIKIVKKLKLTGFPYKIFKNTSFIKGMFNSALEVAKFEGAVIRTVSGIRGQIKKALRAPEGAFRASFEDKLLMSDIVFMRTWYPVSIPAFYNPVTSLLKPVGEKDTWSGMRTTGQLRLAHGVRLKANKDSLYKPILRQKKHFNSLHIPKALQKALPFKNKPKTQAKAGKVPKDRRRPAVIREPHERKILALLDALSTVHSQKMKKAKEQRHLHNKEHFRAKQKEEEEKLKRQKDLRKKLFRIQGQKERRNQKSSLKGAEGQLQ
PEX16, sequence (chain, as listed by the source): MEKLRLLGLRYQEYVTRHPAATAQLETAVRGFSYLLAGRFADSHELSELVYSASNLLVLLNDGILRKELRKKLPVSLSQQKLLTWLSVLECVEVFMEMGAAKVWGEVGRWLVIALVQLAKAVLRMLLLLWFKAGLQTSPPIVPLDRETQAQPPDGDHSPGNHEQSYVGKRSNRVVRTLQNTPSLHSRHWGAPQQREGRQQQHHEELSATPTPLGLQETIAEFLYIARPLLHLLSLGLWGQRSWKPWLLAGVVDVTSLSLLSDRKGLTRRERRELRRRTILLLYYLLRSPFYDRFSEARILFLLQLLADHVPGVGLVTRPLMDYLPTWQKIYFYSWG
TAF5L, sequence (chain, as listed by the source): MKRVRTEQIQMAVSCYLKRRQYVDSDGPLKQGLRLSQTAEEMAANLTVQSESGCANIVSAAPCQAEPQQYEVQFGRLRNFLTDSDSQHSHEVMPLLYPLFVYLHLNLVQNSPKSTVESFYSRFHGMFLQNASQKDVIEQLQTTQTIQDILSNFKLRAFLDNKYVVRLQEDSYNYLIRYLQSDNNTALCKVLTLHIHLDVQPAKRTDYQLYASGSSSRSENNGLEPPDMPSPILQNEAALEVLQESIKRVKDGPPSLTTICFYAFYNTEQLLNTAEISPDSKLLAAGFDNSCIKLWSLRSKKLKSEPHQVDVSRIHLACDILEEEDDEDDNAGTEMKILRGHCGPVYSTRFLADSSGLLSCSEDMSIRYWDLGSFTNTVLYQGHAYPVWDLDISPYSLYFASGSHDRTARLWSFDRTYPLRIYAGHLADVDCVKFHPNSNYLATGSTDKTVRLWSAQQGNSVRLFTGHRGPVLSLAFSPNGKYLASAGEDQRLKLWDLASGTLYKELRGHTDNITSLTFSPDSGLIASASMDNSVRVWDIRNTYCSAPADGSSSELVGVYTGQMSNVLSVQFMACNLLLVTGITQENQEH
TFAP2C, sequence (chain, as listed by the source): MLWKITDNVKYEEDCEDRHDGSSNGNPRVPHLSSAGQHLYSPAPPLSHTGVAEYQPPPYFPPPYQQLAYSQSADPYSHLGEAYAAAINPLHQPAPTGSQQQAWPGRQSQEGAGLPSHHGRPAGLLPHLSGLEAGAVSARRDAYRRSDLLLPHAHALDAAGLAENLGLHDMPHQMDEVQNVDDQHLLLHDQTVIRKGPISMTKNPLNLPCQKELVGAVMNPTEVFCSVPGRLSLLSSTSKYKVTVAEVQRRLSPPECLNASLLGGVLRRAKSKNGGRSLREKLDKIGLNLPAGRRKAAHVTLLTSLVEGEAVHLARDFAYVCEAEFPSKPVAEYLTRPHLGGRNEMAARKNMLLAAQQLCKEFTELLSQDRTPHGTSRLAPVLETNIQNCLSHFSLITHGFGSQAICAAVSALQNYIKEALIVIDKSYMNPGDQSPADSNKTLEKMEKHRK
POLR3K, sequence (chain, as listed by the source): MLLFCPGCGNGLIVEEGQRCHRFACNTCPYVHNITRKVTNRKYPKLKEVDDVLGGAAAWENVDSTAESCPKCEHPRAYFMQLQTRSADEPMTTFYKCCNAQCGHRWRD
NCOA2, sequence (chain, as listed by the source): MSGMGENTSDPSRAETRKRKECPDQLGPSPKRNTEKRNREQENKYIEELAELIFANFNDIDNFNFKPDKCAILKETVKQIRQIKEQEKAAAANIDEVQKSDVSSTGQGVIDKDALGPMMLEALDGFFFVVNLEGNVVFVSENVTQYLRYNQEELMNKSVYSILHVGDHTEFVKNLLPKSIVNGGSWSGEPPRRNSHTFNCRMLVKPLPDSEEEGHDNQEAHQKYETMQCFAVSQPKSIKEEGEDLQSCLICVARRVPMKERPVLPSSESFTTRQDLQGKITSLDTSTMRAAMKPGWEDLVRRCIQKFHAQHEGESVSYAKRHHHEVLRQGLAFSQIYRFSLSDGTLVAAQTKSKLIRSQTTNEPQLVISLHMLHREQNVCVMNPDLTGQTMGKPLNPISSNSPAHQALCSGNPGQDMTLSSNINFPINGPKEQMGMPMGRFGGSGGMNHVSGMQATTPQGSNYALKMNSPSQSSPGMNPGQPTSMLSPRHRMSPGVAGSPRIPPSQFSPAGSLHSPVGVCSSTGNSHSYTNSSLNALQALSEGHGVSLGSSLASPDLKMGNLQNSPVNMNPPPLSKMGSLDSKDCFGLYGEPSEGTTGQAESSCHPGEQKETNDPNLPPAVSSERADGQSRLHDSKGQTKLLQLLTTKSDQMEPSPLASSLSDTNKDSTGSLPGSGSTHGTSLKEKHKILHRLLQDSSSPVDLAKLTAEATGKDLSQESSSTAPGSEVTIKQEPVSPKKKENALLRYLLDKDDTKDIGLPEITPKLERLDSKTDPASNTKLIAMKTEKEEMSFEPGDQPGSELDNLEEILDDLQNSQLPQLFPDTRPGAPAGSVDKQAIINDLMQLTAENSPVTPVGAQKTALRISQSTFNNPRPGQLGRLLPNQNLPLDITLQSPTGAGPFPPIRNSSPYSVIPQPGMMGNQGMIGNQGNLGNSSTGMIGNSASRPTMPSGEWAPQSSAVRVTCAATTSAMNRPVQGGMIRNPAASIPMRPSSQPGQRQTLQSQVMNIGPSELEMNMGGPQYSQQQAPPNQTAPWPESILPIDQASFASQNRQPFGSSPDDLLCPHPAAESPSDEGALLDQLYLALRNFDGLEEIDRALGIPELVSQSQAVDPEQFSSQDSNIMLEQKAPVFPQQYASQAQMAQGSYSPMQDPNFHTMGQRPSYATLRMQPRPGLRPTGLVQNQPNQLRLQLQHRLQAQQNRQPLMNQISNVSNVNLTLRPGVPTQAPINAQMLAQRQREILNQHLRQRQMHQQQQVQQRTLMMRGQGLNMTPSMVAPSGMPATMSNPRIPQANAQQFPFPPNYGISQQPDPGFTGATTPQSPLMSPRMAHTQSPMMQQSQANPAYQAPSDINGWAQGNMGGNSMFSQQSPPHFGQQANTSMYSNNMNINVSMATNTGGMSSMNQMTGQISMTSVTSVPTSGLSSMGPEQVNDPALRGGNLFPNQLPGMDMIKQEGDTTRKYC

| Substance | solubility in G1/S (log2) (HeLa Kyoto [1]) | solubility change mitosis (log2) (HeLa Kyoto [2]) | thermal stability score (HeLa Kyoto [3]; [4]) | thermal stability score (HeLa Kyoto [3]; cell cycle stage: mitosis) |
| --- | --- | --- | --- | --- |
| BLM | -0.848 | 0.632 | -0.277 | -0.894 |
| BMS1 | -2.43 | 0.919 | -1.95 | -3.51 |
| CEP170B | 0.0802 | 0.338 | -3.46e-17 | -1.29e-17 |
| DISP1 | 0.0363 | -0.159 | -0.198 | 0.756 |
| KIAA1671 | -1.28 | 1.05 | -0.863 | -1.71 |
| MAAAAPAAAAASSEAPAASATAEPEAGDQDSREVRVLQSLRGKICEAKNLLPYLGPHKMRDCFCTINLDQEEVYRTQVVEKSLSPFFSEEFYFEIPRTFQYLSFYVYDKNVLQRDLRIGKVAIKKEDLCNHSGKETWFSLQPVDSNSEVQGKVHLELKLNELITENGTVCQQLVVHIKACHGLPLINGQSCDPYATVSLVGPSRNDQKKTKVKKKTSNPQFNEIFYFEVTRSSSYTRKSQFQVEEEDIEKLEIRIDLWNNGNLVQDVFLGEIKVPVNVLRTDSSHQAWYLLQPRDNGNKSSKTDDLGSLRLNICYTEDYVLPSEYYGPLKTLLLKSPDVQPISASAAYILSEICRDKNDAVLPLVRLLLHHDKLVPFATAVAELDLKDTQDANTIFRGNSLATRCLDEMMKIVGGHYLKVTLKPILDEICDSSKSCEIDPIKLKEGDNVENNKENLRYYVDKLFNTIVKSSMSCPTVMCDIFYSLRQMATQRFPNDPHVQYSAVSSFVFLRFFAVAVVSPHTFHLRPHHPDAQTIRTLTLISKTIQTLGSWGSLSKSKSSFKETFMCEFFKMFQEEGYIIAVKKFLDEISSTETKESSGTSEPVHLKEGEMYKRAQGRTRIGKKNFKKRWFCLTSRELTYHKQPGSKDAIYTIPVKNILAVEKLEESSFNKKNMFQVIHTEKPLYVQANNCVEANEWIDVLCRVSRCNQNRLSFYHPSVYLNGNWLCCQETGENTLGCKPCTAGVPADIQIDIDEDRETERIYSLFTLSLLKLQKMEEACGTIAVYQGPQKEPDDYSNFVIEDSVTTFKTIQQIKSIIEKLDEPHEKYRKKRSSSAKYGSKENPIVGKAS [RASA2] | -0.1 | -0.128 | 0.349 | 0.0928 |
| MAADVVGDVYVLVEHPFEYTGKDGRRVAIRPNERYRLLRRSTEHWWHVRREPGGRPFYLPAQYVRELPALGNPAAAAPPGPHPSPAAPEPLAYDYRFVSAAATAGPDGAPEESGGRASSLCGPAQRGAATQRSSLAPGLPACLYLRPAAPVRPAQSLNDLACAAVSPPAGLLGSSGSFKACSVAGSWVCPRPLARSDSENVYEVIQDLHVPPPEESAEQVDDPPEPVYANIERQPRATSPGAAAAPLPSPVWETHTDAGTGRPYYYNPDTGVTTWESPFEAAEGAASPATSPASVDSHVSLETEWGQYWDEESRRVFFYNPLTGETAWEDEAENEPEEELEMQPGLSPGSPGDPRPPTPETDYPESLTSYPEEDYSPVGSFGEPGPTSPLTTPPGWSCHVSQDKQMLYTNHFTQEQWVRLEDPHGKPYFYNPEDSSVRWELPQVPVPAPRSIHKSSQDGDTPAQASPPEEKVPAELDEVGSWEEVSPATAAVRTKTLDKAGVLHRTKTADKGKRLRKKHWSASWTVLEGGVLTFFKDSKTSAAGGLRQPSKFSTPEYTVELRGATLSWAPKDKSSRKNVLELRSRDGSEYLIQHDSEAIISTWHKAIAQGIQELSAELPPEESESSRVDFGSSERLGSWQEKEEDARPNAAAPALGPVGLESDLSKVRHKLRKFLQRRPTLQSLREKGYIKDQVFGCALAALCERERSRVPRFVQQCIRAVEARGLDIDGLYRISGNLATIQKLRYKVDHDERLDLDDGRWEDVHVITGALKLFFRELPEPLFPFSHFRQFIAAIKLQDQARRSRCVRDLVRSLPAPNHDTLRMLFQHLCRVIEHGEQNRMSVQSVAIVFGPTLLRPEVEETSMPMTMVFQNQVVELILQQCADIFPPH [ARHGAP27] | 0.0968 | -0.164 | 2.18 | 0.927 |
| MYFLSGWPKRLLCPLGSPAEAPFHVQSDPQRAFFAVLAAARLSIWYSRPSVLIVTYKEPAKSSTQFGSYKQAEWRPDSTMIAVSTANGYILFFHITSTRGDKYLYEPVYPKGSPQMKGTPHFKEEQCAPALNLEMRKILDLQAPIMSLQSVLEDLLVATSDGLLHLIHWEGMTNGRKAINLCTVPFSVDLQSSRVGSFLGFTDVHIRDMEYCATLDGFAVVFNDGKVGFITPVSSRFTAEQLHGVWPQDVVDGTCVAVNNKYRLMAFGCVSGSVQVYTIDNSTGAMLLSHKLELTAKQYPDIWNKTGAVKLMRWSPDNSVVIVTWEYGGLSLWSVFGAQLICTLGGDFAYRSDGTKKDPLKINSMSWGAEGYHLWVISGFGSQNTEIESDLRSVVKQPSILLFQFIKSVLTVNPCMSNQEQVLLQGEDRLYLNCGEASQTQNPRSSSTHSEHKPSREKSPFADGGLESQGLSTLLGHRHWHVVQISSTYLESNWPIRFSAIDKLGQNIAVVGKFGFAHYSLLTKKWKLFGNITQEQNMIVTGGLAWWNDFMVLACYNINDRQEELRVYLRTSNLDNAFAHVTKAQAETLLLSVFQDMVIVFRADCSICLYSIERKSDGPNTTAGIQVLQEVSMSRYIPHPFLVVSVTLTSVSTENGITLKMPQQARGAESIMLNLAGQLIMMQRDRSGPQIREKDSNPNNQRKLLPFCPPVVLAQSVENVWTTCRANKQKRHLLEALWLSCGGAGMKVWLPLFPRDHRKPHSFLSQRIMLPFHINIYPLAVLFEDALVLGAVNDTLLYDSLYTRNNAREQLEVLFPFCVVERTSQIYLHHILRQLLVRNLGEQALLLAQSCATLPYFPHVLELMLHEVLEEEATSREPIPDPLLPTVAKFITEFPLFLQTVVHCARKTEYALWNYLFAAVGNPKDLFEECLMAQDLDTAASYLIILQNMEVPAVSRQHATLLFNTALEQGKWDLCRHMIRFLKAIGSGESETPPSTPTAQEPSSSGGFEFFRNRSISLSQSAENVPASKFSLQKTLSMPSGPSGKRWSKDSDCAENMYIDMMLWRHARRLLEDVRLKDLGCFAAQLGFELISWLCKERTRAARVDNFVIALKRLHKDFLWPLPIIPASSISSPFKNGKYRTVGEQLLKSQSADPFLNLEMDAGISNIQRSQSWLSNIGPTHHEIDTASSHGPQMQDAFLSPLSNKGDECSIGSATDLTESSSMVDGDWTMVDENFSTLSLTQSELEHISMELASKGPHKSQVQLRYLLHIFMEAGCLDWCIVIGLILRESSIINQILVITQSSEVDGEMLQNIKTGLHAVDRWASTDCPGYKPFLNIIKPQLQKLSEITEEQVQPDAFQPITMGKTPEQTSPRAEESRGSSSHGSIPQGEVGSSNMVSRKEEDTAQAEEEEPFQDGTYDCSVS [RIC1] | -0.168 | 0.129 | – | – |
| MYO9A | -0.102 | 0.00755 | – | – |
| MYTITKGPSKLVAQRRTGPTQQQVEGRLGELLKCRQPAPPTSQPPRAQPFAQPPGPWPLSSPGPRLVFNRVNGRRAPSTSPSFEGTQETYTVAHEENVRFVSEAWQQVQQQLDGGPAGEGGPRPVQYVERTPNPRLQNFVPIDLDEWWAQQFLARITSCS [FAM195A] | -0.457 | 0.195 | – | – |
| NAV2 | -0.147 | 0.109 | – | – |
| NBEAL1 | -0.894 | -0.118 | – | – |
| NCOA2 | 0.178 | -0.129 | – | – |
| NES | -1.35 | 0.912 | – | – |
| NSA2 | -2.43 | 1.41 | – | – |
| OBSL1 | -0.276 | -0.0157 | – | – |

| Substance | solubility in G1/S (log2) (HeLa Kyoto [1]) | solubility change mitosis (log2) (HeLa Kyoto [2]) | thermal stability score (HeLa Kyoto [3]; [4]) | thermal stability score (HeLa Kyoto [3]; cell cycle stage: mitosis) |
| --- | --- | --- | --- | --- |
| PDCD11 | -2.88 | 1.53 | – | – |
| PEX16 | -0.248 | -0.0414 | – | – |
| POLR3K | 0.354 | 0.031 | – | – |
| PRR14L | -0.0161 | 0.0491 | – | – |
| RIMS1 | 0.0741 | 0.0888 | – | – |
| SHPRH | -0.418 | 0.00438 | – | – |
| SLC7A6 | -0.00617 | -0.122 | – | – |
| SMG6 | -0.859 | 0.113 | – | – |
| SZT2 | -0.476 | 0.317 | – | – |
| TAF5L | -0.145 | -0.0612 | – | – |
| TFAP2C | -0.0214 | 0.119 | – | – |
| TNRC18 | 0.0268 | -0.234 | – | – |
| TTC28 | 0.0118 | -0.133 | – | – |
| ZFYVE26 | 0.0351 | -0.0176 | – | – |
| ZNF106 | -1.19 | 0.915 | – | – |
